Experimental data taken from paper PMC5841623 (Journal of molecular biology, 2016).

Target: Recombinant DnaJ-1-HA (Drosophila, UniProt Q24133 1-334)
Assay: co-IP

Recombinant DnaJ-1-HA, sequence (Q24133 whole entry): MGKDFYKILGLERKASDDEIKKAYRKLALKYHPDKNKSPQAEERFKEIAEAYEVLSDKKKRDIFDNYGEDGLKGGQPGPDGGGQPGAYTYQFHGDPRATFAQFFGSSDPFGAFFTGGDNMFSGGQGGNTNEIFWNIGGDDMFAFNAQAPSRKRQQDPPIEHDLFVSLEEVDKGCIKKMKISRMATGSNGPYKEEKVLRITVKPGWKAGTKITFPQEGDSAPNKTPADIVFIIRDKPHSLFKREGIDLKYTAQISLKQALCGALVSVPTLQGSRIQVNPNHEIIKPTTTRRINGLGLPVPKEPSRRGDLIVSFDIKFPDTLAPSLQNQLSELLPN

B1: Recombinant His-MLF (natural protein, Drosophila, UniProt Q9NKV0-2 1-309, looked up)
chain: MSLFGALMGDFDDDLGLMNNHMNHTMNAMNMQMRSMNRLMNSFMPDPFMQVSPFDQGFQQNALMERPQMPAMPAMGLFGMPMMPNFNRLLNADIGGNSGASFCQSTVMTMSSGPDGRPQIYQASTSTKTGPGGVRETRRTVQDSRTGVKKMAIGHHIGERAHIIEKEQDMRSGQLEERQEFINLEEGEAEQFDREFTSRASRGAVQSRHHAGGMQAIMPARPAAHTSTLTIEPVEDDDDDDDDCVIQEQQPVRSSAGRHYSSAPTAPQNSIHPHPYAANPRRQQRAVKHFHTEDEAASSYKAVKRGKKK
B1: binds.
